Measured values as given in patent US20260250421A1.

Columns and labels:
[1] = biological target: human PTK7 on human cancer cell lines (human) (UniProt Q13308); test: flow cytometry, PC-3 cells, isotype control
[2] = biological target: human PTK7 on human cancer cell lines (human) (UniProt Q13308); test: flow cytometry, A-431 cells, isotype control
[3] = biological target: human PTK7 on human cancer cell lines (human) (UniProt Q13308); test: flow cytometry, BT-20 cells, isotype control
[4] = biological target: human PTK7 on human cancer cell lines (human) (UniProt Q13308); test: flow cytometry, HCT116 cells, isotype control
[5] = biological target: human PTK7 on human cancer cell lines (human) (UniProt Q13308); test: flow cytometry, HCC1954 cells, isotype control
[6] = biological target: human PTK7 on human cancer cell lines (human) (UniProt Q13308); test: flow cytometry, NCI-N87 cells, isotype control
[7] = biological target: human PTK7 on human cancer cell lines (human) (UniProt Q13308); test: flow cytometry, SK-OV-3 cells, isotype control
[8] = biological target: dog PTK7 on dog cancer cell lines (dog); test: flow cytometry, D-17 dog cells, isotype control
[9] = biological target: human PTK7 on human cancer cell lines (human) (UniProt Q13308); test: flow cytometry, NCI-H226 cells, isotype control
[10] = biological target: human PTK7 on human cancer cell lines (human) (UniProt Q13308); test: flow cytometry, NCI-H292 cells, isotype control
[11] = biological target: human PTK7 on human cancer cell lines (human) (UniProt Q13308); test: flow cytometry, NCI-H358 cells, isotype control
[12] = biological target: human PTK7 on human cancer cell lines (human) (UniProt Q13308); test: flow cytometry, NCI-H520 cells, isotype control
[13] = biological target: dog PTK7 on dog cancer cell lines (dog); test: flow cytometry, CMT-U27 dog cells, isotype control

human PTK7 on human cancer cell lines (human), sequence (Q13308 31-1070 limits assumed): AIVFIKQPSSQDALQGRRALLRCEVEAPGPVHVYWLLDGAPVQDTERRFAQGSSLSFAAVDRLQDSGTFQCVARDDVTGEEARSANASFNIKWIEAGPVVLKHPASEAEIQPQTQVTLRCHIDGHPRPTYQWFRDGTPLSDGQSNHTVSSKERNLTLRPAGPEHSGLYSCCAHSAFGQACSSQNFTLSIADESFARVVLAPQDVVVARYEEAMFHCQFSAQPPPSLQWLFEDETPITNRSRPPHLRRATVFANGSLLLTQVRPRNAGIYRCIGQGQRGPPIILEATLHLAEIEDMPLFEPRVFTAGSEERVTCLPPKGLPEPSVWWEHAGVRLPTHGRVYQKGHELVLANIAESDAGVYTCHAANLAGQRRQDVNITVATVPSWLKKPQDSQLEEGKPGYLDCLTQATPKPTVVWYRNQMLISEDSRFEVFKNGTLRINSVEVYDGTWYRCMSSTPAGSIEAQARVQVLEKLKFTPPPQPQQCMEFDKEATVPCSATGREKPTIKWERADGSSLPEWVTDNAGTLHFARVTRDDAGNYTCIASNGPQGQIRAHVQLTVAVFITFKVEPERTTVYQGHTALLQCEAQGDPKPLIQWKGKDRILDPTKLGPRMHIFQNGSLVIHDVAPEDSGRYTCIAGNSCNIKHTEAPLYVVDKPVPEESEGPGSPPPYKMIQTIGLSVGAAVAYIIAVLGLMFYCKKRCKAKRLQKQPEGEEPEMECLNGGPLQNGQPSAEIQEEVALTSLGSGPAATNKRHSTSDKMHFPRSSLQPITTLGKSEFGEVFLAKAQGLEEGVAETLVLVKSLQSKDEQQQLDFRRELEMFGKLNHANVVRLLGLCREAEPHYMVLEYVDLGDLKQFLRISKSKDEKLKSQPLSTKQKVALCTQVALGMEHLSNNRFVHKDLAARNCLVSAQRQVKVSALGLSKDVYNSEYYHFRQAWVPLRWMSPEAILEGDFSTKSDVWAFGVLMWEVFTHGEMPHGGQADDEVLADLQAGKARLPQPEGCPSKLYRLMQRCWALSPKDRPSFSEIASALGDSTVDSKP

MFI [1]: 3690
MFI [2]: 4630
MFI [3]: 5920
MFI [4]: 3110
MFI [5]: 6340
MFI [6]: 2850
MFI [7]: 3860
MFI [8]: 3520
MFI [9]: 9840
MFI [10]: 2230
MFI [11]: 3360
MFI [12]: 2420
MFI [13]: 1650
Substance: Human IgG1 (ISO control) (antibody)
